From patent US20240327502A1

What was measured:
[1] = substrate: F protein of hMPV A virus (human metapneumovirus subtype A); assay: cell-based or functional assay
[2] = substrate: F protein of hMPV B virus (human metapneumovirus subtype B); assay: cell-based or functional assay

Binder	PRNT IC50 [1] [ng/mL]	PRNT IC50 [2] [ng/mL]
M4A12 (antibody, V domains shown) VH: QLQESGSGPGLVKPSETLSLICNASGDSVTRNAYYWGWLRQPPGKGLEWIGIMYYSGSTFYNPSLKSRLTISVDTSKNQFSLKLRSVTAADTATYYCGEATLTTYDAFDVWGHGTMVTVSS VL: QSVLTQPPSVSAAPGQRVTISCSGGNSNIGKNYVSWYQQVPGTAPKLLIYENNKRPSGIPDRFSGSKSGTSATLGITGLQTGDEADYYCGAWDSSLNGVLFGGGTRLTVL	> 10000	74.4
M2A09 (antibody, V domains shown) VH: QVQLVQSGAGVRKPGSSVKVSCKASGGTFSNYIISWVRQAPGQGLEYIGRIIPIVGMEKYEEKFQGRVKITADESTSTVSMELTSLKSEDTATYYCATEGLESGYPPYLEHWGRGTLVIVSS VL: EIVLTQSPGTLSLSPGERATLSCRTSQTVGAHLAWYQQKPGQSPRLLIYGASSRATGIPDRFSGSGSGTVFTLTINRLEPEDLAVYYCQQYGASPPTFGQGTKVEIK	13.3	45.6
M4C02 (antibody, V domains shown) VH: QLQLQESGPRLVKPSETLSLTCSVSGGSISSSSLYWGWIRQSPGKGLEWIGTIYYGGSSDYNPSLKSRLTMSVDTSKNHFSLRLSSVTAADTAVYYCARVGSPVTTTVWFDPWGQGTLVTVSS VL: DIQMTQSPSSLAASIGDRVTITCRASQTISTYLNWYQQKPGKAPKLLIYAASTLQSGVPSRFSGSGSGTDFTLTISSLQPEDFATYYCQQTYSSLALTFGGGTKVEIR	577	173
M1C11 (antibody, V domains shown) VH: QVQLVQSGAEMKKPGSSVKVSCKTSGGSFSSYPVSWVRQAPGQGPEWMGGIIPLSGTTHYAQMFQGRVSITADDSTRTVFMELTSLRSGDTAVYYCARSGAPTYYYDSSGFHGGAFHFWGQGTVVTVSS VL: DIVMTQSPDSLAVSLGERATINCKSSQSVLYSSNSKSYLAWYQQKPGQPPKLLIYWASSRESGVPDRFSGSGSGTDFTLTISSLQAEDVAVYYCQQFYTSPHTFGQGTKLEIKR	5920	444
M3D09 (antibody, V domains shown) VH: QVQLVESGGGVVQSGKSLGLSCIASGFIFSNYALHWVRQAPGKGLEWLSVISYDGTNKYYANSVRGRFTVSRDNSKNTLFLHMNSLGVDDTAMYYCARDPERLADLGRMDFWGRGTLVAVLS VL: DIVMTQSPDSLAVSLGERATINCKSSQSVLFSPNNKNYLAWYQQKPGQPPKLLIYWASTREYGVPERFSGSGSGTDFTLTISSLQAEDVAVYYCQQYNSNPYTFGQGTKLEIR	2000	280
M3D12 (antibody, V domains shown) VH: QVQLQESGPGLVKPSQTLSLTCTVSGASVSSEYYYWSWIRQPPGKGLEWIGYIYHNGDTYYNPSLKGRGIISMDTSKNQFSLKLISVTAADTAVYYCARLAVAGVTGFHYWGLGTLVTVSS VL: EIVLTQSPDTLSLSPGERATLSCRASRSVRNYLAWYQQKPGQAPRLLIYDASNRAPGIPARFSGSGSETDFTLTISSLEPEDFAVYYCQQRSNWGLTFGGGTKVEIK	23.1	14.5
M4B01 (antibody, V domains shown) VH: EVQLLESGGGLVQPGGSLRLSCAASGFNFNTYAMSWVRQAPGKGLKWISTISGSGGVKYYADSVKGRFTISRDNSGSILYLQMNRLRADDTAVYYCAKSQNPQLVFFDSFDMWGQGSMVTVSS VL: QSVLTQAPSASAAPGQKVTISCSGSTSNIGNSYVSWYQQVPGTAPKLLIYEDNQRPSGIPDRFSGSKSGTSATLGITGLQTGDEADYYCGTWDNSLTEVVFGGGTKLTVL	37.1	62.8
M2D07 (antibody, V domains shown) VH: QVQLVESGGAVVQPGRSLRLSCAASGFTFTSFSMHWVRQAPGRGLEWVAVISHDGIIKYYADSVKGRFTISRDNSKNTVFLQMNSLRPEDTAVFYCARDFPGSRGFFRYYFDHWGQGTLVTVSS VL: DIQMTQSPSSLSASVGGSVTITCRVDQSISNDLHWYQQKPGKAPKLLISSASSLQSGVPSRFSGSGSGTDFTLTITSLQPEDFATYYCQQSYTTPPLFGQGTTLEIK	1070	2500
M2D10 (antibody, V domains shown) VH: QVQLVQSGAEVKKPGASVRISCKPSGRAFLTYDINWVRQAPGQGLEWMAGMNPGSGNAAYAPKFQGRLTMIRNTSISTDYLELSSLTSEDTAVYYCARGEVSMRWRWLDPWGQGSLVTVTS VL: DIQMTQSPSSLSASVGDRVTITCRASQTISNFLNWYQQKPGRAPKVLIYAALNLQSGVPSRFRGSGSGTDFTLTINNLQPEDFAIYYCQQSYITPWTFGQGTKVEIK	759	1340
M4B04 (antibody, V domains shown) VH: QVQLVESGGGVVQPGKSLRLSCAASGFTFRSYTMFWVRQAPGKGLEWVAIILHDGTNRYYTDSVKGRFTISRDNTKNTVYLQMNSLRPEDTAMYYCARESLEWMLDWGQGTLVTVSS VL: EIVMTQSPATLSVSPGERATLSCRASQSLSGNLAWFQQKPGQAPRLLIYGTSTRATGIPARFSGSGSGTEFTLTISSLQSEDFAVYYCQQYNNWPPVFTFGPGTKVDIK	4590	1970
M3E03 (antibody, V domains shown) VH: QVQLVESGGGVVQPGRSLRLSCVASGFPFDSFAMHWVRQAPGKGLEWVAIVWYDGGDKFYSESVKGRFSISRDNSRNTVFLQMNSLRAEDTAVYYCARGMITFDYWGPGTLVTVSS VL: EIVLTQSPGTLSLSPGERATLSCRASQNVDSSYLAWYQQKPGQAPRLLMYGASTRVAGIPDRFSGSGSGTDFTLTISRLEPEDFVVYYCQQYGTSPTWTFGQGTKVEIK	19.9	76.2
M2B07 (antibody, V domains shown) VH: EVQLVESGGGLVRPGGSLRLSCAASGFTFNNYWMHWVRQAPGKGLVWVSHVKSDGSITNYADSVKGRFTISRDNAKNTLYLEMSSLRVEDTAVYYCARESRPYDPLTGSHPDAFDIWGQGTMVTVSS VL: DIVMTQSPDSLAVSLGERATINCKSSESIFYYSNSKSYLAWYRQKPGQPPKLLIYWASTRESGVPDRFSGSGSGTDFTLTISSLQPEDVAVYYCQQYYTNPRTFGQGTRLEIK	625	426
M2E06 (antibody, V domains shown) VH: EVQLVESGGDLVQPGGSLRLSCEASAFTFSDYAMTWVRQAPGKGLEWVSSINTSGGRTYYADSVKGRFTISRDNSKNTLYLQMKSLRAEDTAVYFCARFFYVMDVWGQGTTVTVSS VL: AIQMTQSPSSLSASVGDRVTITCRASQGVRNDLGWYQQKPGKAPKLLINAASGLQSGVPSRFSGSGSDTDFTLTISSLQPEDFATYYCLQVYSYPFTFGPGTKVDIK	105	139
M4A08 (antibody, V domains shown) VH: EVQLVESGGALVRPGGSLRVSCEASGFNFRTHWMHWVRQAPGKGLVWVARTNGDGSVTNYADSVKGRFTFFRDNAKNTLFLQMTSLRVDDTAVYYCARERLDYSSTRGHFPGDFDSWGQGTLVTVSS VL: DIVMTQSPDSLAVSLGERATINCKSSESVLYTSNSKNYLAWYQQKPGHPPKVLIYWASTRESGVPDRFSGSGSGTDFSLSISSLQAEDVAVYYCQQYFTIPRTFGQGTKVEIK	136	344
M6E10 (antibody, V domains shown) VH: QVQLVQSGAEVKKPGSSVKVSCNASGGIFDTNVINWVRQAPGQGLEWMGGIIPPFGTALYAHQFQGRLTLTVDESTNTAYMDLSSLRSDDTAVYFCARDRTVIKYADGMDVWGQGTTVTVSS VL: DIQMTQSPSSLSASVGDKVAITCRASQTISPYLNWYQQKPGKAPNLLIYGTNKLQSGVPLRFSGSGSGTDFTLTINGLQPEDFATYFCQQSHTTPLTFGGGTKVEIKR	23.7	10.4
M3C07 (antibody, V domains shown) VH: QLQLQESGPGLVKPWETLSLTCIVSGGSISRSTHYWGWIRQSPEMGLEWIGSIYYTGNTYYNPSFKSRVTISVDTSRNQLSLRVNSVSAADTARYYCARHETYDYGVFNIWGQGAMVTVSA VL: EIVLTQSPGTLSLSPGERAILSCRASQTVSSDYLAWYQQRPGQAPRLLIYDASSRATGVPDRFRGSGSGTDFTLTISRLEPEDFGVYYCQQYGSPYTFGQGTKLEIK	> 10000	> 10000
M3D06 (antibody, V domains shown) VH: EVQLVESGGGLVQPGGSLRLSCAASGFPFNFYWMHWVRQAPREGLVWVSRINNDGSSPNYADSVWGRFTISRDNAKNTLYLQMHSLRAEDTAVYYCARAARFGDYVDQWGQGTLVTVSS VL: AIQLTQSPSSLSASMGDRVTITCRASQGISSAFAWYQQKPGKAPKLLIYDASTLESGVPSRFSGSGSGTDFTLTISSLQPEDFATYYCQQFNSYPLTFGGGTKVEIK	> 10000	> 10000
M1A01 (antibody, V domains shown) VH: QVQLVQSGAEVKKPGSSVKVSCWASGGTFDNAINWLRQAPGQGPEWMGRIIPLVDIVNRAPKFQDRVSFTADKSTNTVYMVLNSLTSDDTAVYYCASAFQDGWFDPWGQGTLVTVSS VL: EIVLTQSPATLSLSPGERATLSCRASQSLSRYLAWYQQKPGQAPRLLIYDASNRATGVPARFSGSGSGTDFTLTISSLEPEDFAVYYCHQRHNWITFGQGTRLEIK	3410	4000
M1A12 (antibody, V domains shown) VH: QVQLVQSGTEVKKPGSSVKVSCKDPGDIMSSHSIHWVRQAPGQGPEWMGRIIPLFGMKSYAPNFQGRVSISVDTSTNTAYLELSGLKSDDTAVYFCAREENLSWLDYWGQGTQVIVSS VL: EIVLTQSPATLSLSPGDRATLSCRASLRLSTNIAWYQQKPGQAPRLVIYDASKRATGIPARFSGSGSGTDFTLTISSLEPEDFAVYYCHQHSNWYTFGQGTKLEIK	1510	5000
M3E01 (antibody, V domains shown) VH: EVQLVESGGGLIQPGGSLRLSCTASGFTVSSKYMSWVRQAPGKGLEWVSLIYDGGSTYYADSVKGRFLISRDNAKNTLYLQMHSLRAEDTAVYYCARDRGTYSGYDWYSGMDVWGQGTTVTVSS VL: DIQLTQSPSFLSASVGDRITITCRASQGISSYLAWYQQKPGKAPKLLIYAASTLQSGVPSRFSGSGSGTEFNVTISSLQPEDFATYYCQQLKSYPGTFGQGTKVEIE	> 10000	> 10000
